Measurements from patent US20150344570A1 (published 2015).

T1: FcγRIIb (human, UniProt P31994 43-217)
T1 construct: extracellular domain; Soluble extracellular domain with a C-terminal His tag, expressed in FreeStyle293 cells; also called FcgRIIb; 2b; not shown: His tag attached to the C terminus
T1 sequence (looked up): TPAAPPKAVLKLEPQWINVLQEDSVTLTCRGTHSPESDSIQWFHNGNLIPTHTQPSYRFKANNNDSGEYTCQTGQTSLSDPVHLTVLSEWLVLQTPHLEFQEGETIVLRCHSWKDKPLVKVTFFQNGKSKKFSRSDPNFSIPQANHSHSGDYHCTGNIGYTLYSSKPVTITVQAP

T2: FcγRIIb extracellular domain with C-terminal His tag (human, UniProt P31994 43-217)
T2 construct: extracellular domain; also called FcgRIIb; CD32B; not shown: His tag at the C terminus
T2 sequence (looked up): T1 sequence (looked up)

B1: GpH7-A5/GpH7-B3 variant S239_19Q/GpL16-k0 (antibody, human IgG1, kappa)
heavy 1: not shown
heavy 2: not shown
light: DIVMTQSPLSLPVTPGEPASISCQASESLVHSNRNTYLHWYLQKPGQSPQLLIYKVSNRFSGVPDRFSGSGSGTDFTLKISRVEAEDVGVYYCSQNTHVPPTFGQGTKVEIERTVAAPSVFIFPPSDEQLKSGTASVVCLLNNFYPREAKVQWKVDNALQSGNSQESVTEQDSKDSTYSLSSTLTLSKADYEKHKVYACEVTHQGLSSPVTKSFNRGEC
notes: Heterodimerized anti-glypican-3 IgG1; the mutation is in the GpH7-B3 chain only; also called He Ab
B2: GpH7-A5/GpH7-B3 variant S239_12R/GpL16-k0 (antibody, human IgG1, kappa)
heavy 1: not shown
heavy 2: not shown
light: B1 light
notes: as for B1
B3: GpH7-A5/GpH7-B3 variant S239_07I/GpL16-k0 (antibody, human IgG1, kappa)
heavy 1: not shown
heavy 2: not shown
light: B1 light
notes: as for B1
B4: GpH7-A5/GpH7-B3 variant S239_15Y/GpL16-k0 (antibody, human IgG1, kappa)
heavy 1: not shown
heavy 2: not shown
light: B1 light
notes: as for B1
B5: GpH7-A5/GpH7-B3 variant S239_11K/GpL16-k0 (antibody, human IgG1, kappa)
heavy 1: not shown
heavy 2: not shown
light: B1 light
notes: as for B1
B6: GpH7-A5/GpH7-B3 variant S239_16H/GpL16-k0 (antibody, human IgG1, kappa)
heavy 1: not shown
heavy 2: not shown
light: B1 light
notes: as for B1
B7: GpH7-A5/GpH7-B3 variant S239_06M/GpL16-k0 (antibody, human IgG1, kappa)
heavy 1: not shown
heavy 2: not shown
light: B1 light
notes: as for B1
B8: GpH7-A5/GpH7-B3 variant S239_08L/GpL16-k0 (antibody, human IgG1, kappa)
heavy 1: not shown
heavy 2: not shown
light: B1 light
notes: as for B1
B9: GpH7-A5/GpH7-B3 variant G236_06M/GpL16-k0 (antibody, human IgG1, kappa)
heavy 1: not shown
heavy 2: not shown
light: B1 light
notes: Heterodimerized anti-glypican-3 IgG1; mutation only in the GpH7-B3 H chain; also called He Ab
B10: GpH7-A5/GpH7-B3 variant G237_14T/GpL16-k0 (antibody, human IgG1, kappa)
heavy 1: not shown
heavy 2: not shown
light: B1 light
notes: as for B9
B11: GpH7-A5/GpH7-B3 variant G236_16H/GpL16-k0 (antibody, human IgG1, kappa)
heavy 1: not shown
heavy 2: not shown
light: B1 light
notes: as for B9
B12: GpH7-A5/GpH7-B3 variant G237_16H/GpL16-k0 (antibody, human IgG1, kappa)
heavy 1: not shown
heavy 2: not shown
light: B1 light
notes: as for B9
B13: GpH7-A5/GpH7-B3 variant G237_05P/GpL16-k0 (antibody, human IgG1, kappa)
heavy 1: not shown
heavy 2: not shown
light: B1 light
notes: as for B9
B14: GpH7-A5/GpH7-B3 variant P238_18N/GpL16-k0 (antibody, human IgG1, kappa)
heavy 1: not shown
heavy 2: not shown
light: B1 light
notes: as for B9
B15: GpH7-A5/GpH7-B3 variant G236_15Y/GpL16-k0 (antibody, human IgG1, kappa)
heavy 1: not shown
heavy 2: not shown
light: B1 light
notes: as for B9
B16: GpH7-A5/GpH7-B3 variant G236_14T/GpL16-k0 (antibody, human IgG1, kappa)
heavy 1: not shown
heavy 2: not shown
light: B1 light
notes: as for B9
B17: GpH7-A5/GpH7-B3 variant G236_20W/GpL16-k0 (antibody, human IgG1, kappa)
heavy 1: not shown
heavy 2: not shown
light: B1 light
notes: Heterodimerized anti-glypican-3 IgG1; mutation only in the GpH7-B3 H chain; also called He Ab; GpH7-A5/GpH7-B3-03-20W/GpL16-k0
B18: GpH7-A5/GpH7-B3 variant P238_13S/GpL16-k0 (antibody, human IgG1, kappa)
heavy 1: not shown
heavy 2: not shown
light: B1 light
notes: as for B9
B19: GpH7-A5/GpH7-B3 variant G236_08L/GpL16-k0 (antibody, human IgG1, kappa)
heavy 1: not shown
heavy 2: not shown
light: B1 light
notes: as for B9
B20: GpH7-A5/GpH7-B3 variant S239_12R/GpL16-k0 (antibody, human IgG1, kappa)
heavy 1: not shown
heavy 2: not shown
light: B1 light
notes: as for B9
B21: GpH7-A5/GpH7-B3 variant G236_19Q/GpL16-k0 (antibody, human IgG1, kappa)
heavy 1: not shown
heavy 2: not shown
light: B1 light
notes: as for B9
B22: GpH7-A5/GpH7-B3 variant P238_02A/GpL16-k0 (antibody, human IgG1, kappa)
heavy 1: not shown
heavy 2: not shown
light: B1 light
notes: as for B9
B23: GpH7-A5/GpH7-B3 variant P238_14T/GpL16-k0 (antibody, human IgG1, kappa)
heavy 1: not shown
heavy 2: not shown
light: B1 light
notes: as for B9
B24: GpH7-A5/GpH7-B3 variant P238_12R/GpL16-k0 (antibody, human IgG1, kappa)
heavy 1: not shown
heavy 2: not shown
light: B1 light
notes: as for B9
B25: GpH7-A5/GpH7-B3 variant S239_11K/GpL16-k0 (antibody, human IgG1, kappa)
heavy 1: not shown
heavy 2: not shown
light: B1 light
notes: as for B9
B26: GpH7-A5/GpH7-B3 variant S239_15Y/GpL16-k0 (antibody, human IgG1, kappa)
heavy 1: not shown
heavy 2: not shown
light: B1 light
notes: as for B9
B27: GpH7-A5/GpH7-B3 variant G236_11K/GpL16-k0 (antibody, human IgG1, kappa)
heavy 1: not shown
heavy 2: not shown
light: B1 light
notes: as for B9
B28: GpH7-A5/GpH7-B3 variant P238_01G/GpL16-k0 (antibody, human IgG1, kappa)
heavy 1: not shown
heavy 2: not shown
light: B1 light
notes: as for B9
B29: GpH7-A5/GpH7-B3 variant G236_07I/GpL16-k0 (antibody, human IgG1, kappa)
heavy 1: not shown
heavy 2: not shown
light: B1 light
notes: as for B9
B30: GpH7-A5/GpH7-B3 variant P238_11K/GpL16-k0 (antibody, human IgG1, kappa)
heavy 1: not shown
heavy 2: not shown
light: B1 light
notes: as for B9
B31: GpH7-A5/GpH7-B3 variant S239_04F/GpL16-k0 (antibody, human IgG1, kappa)
heavy 1: not shown
heavy 2: not shown
light: B1 light
notes: as for B9
B32: GpH7-A5/GpH7-B3 variant G236_12R/GpL16-k0 (antibody, human IgG1, kappa)
heavy 1: not shown
heavy 2: not shown
light: B1 light
notes: as for B9
B33: GpH7-A5/GpH7-B3 variant G237_03V/GpL16-k0 (antibody, human IgG1, kappa)
heavy 1: not shown
heavy 2: not shown
light: B1 light
notes: as for B9
B34: GpH7-A5/GpH7-B3 variant S239_16H/GpL16-k0 (antibody, human IgG1, kappa)
heavy 1: not shown
heavy 2: not shown
light: B1 light
notes: as for B9
B35: GpH7-A5/GpH7-B3 variant P238_07I/GpL16-k0 (antibody, human IgG1, kappa)
heavy 1: not shown
heavy 2: not shown
light: B1 light
notes: as for B9

target: T1, FcγRIIb; assay: SPR (Biacore), antibody captured on chip, FcγR as analyte

He/Con_2b	Binder
86.1 relative binding, GpH7-A5/GpH7-B3/GpL16-k0 = 100	B1
39.1 relative binding, GpH7-A5/GpH7-B3/GpL16-k0 = 100	B2
107 relative binding, GpH7-A5/GpH7-B3/GpL16-k0 = 100	B3
34.9 relative binding, GpH7-A5/GpH7-B3/GpL16-k0 = 100	B4
24.7 relative binding, GpH7-A5/GpH7-B3/GpL16-k0 = 100	B5
49.4 relative binding, GpH7-A5/GpH7-B3/GpL16-k0 = 100	B6
101 relative binding, GpH7-A5/GpH7-B3/GpL16-k0 = 100	B7
140 relative binding, GpH7-A5/GpH7-B3/GpL16-k0 = 100	B8

target: T3, FcγRIIIa (human, UniProt P08637 17-208); assay: as above
T3 construct: extracellular domain; Soluble extracellular domain with a C-terminal His tag; also called FcgRIIIa; 3a; not shown: His tag attached to the C terminus
T3 sequence (P08637 17-208): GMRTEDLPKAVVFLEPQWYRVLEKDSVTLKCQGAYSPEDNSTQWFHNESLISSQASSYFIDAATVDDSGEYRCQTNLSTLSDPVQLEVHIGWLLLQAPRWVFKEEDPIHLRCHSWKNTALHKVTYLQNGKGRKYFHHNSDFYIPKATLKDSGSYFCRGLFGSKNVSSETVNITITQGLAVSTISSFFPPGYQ

He/Con_3a	Binder
56.9 relative binding, GpH7-A5/GpH7-B3/GpL16-k0 = 100	B1
17 relative binding, GpH7-A5/GpH7-B3/GpL16-k0 = 100	B2
79.3 relative binding, GpH7-A5/GpH7-B3/GpL16-k0 = 100	B3
25.6 relative binding, GpH7-A5/GpH7-B3/GpL16-k0 = 100	B4
11.9 relative binding, GpH7-A5/GpH7-B3/GpL16-k0 = 100	B5
29.2 relative binding, GpH7-A5/GpH7-B3/GpL16-k0 = 100	B6
78.2 relative binding, GpH7-A5/GpH7-B3/GpL16-k0 = 100	B7
95.3 relative binding, GpH7-A5/GpH7-B3/GpL16-k0 = 100	B8

target: T3, FcγRIIIa; assay: SPR; He/Con_3a (FcγRIIIa) divided by He/Con_2b (FcγRIIb)

He_3a/2b (IIIa/IIb) [ratio]	Binder
0.66	B1
0.44	B2
0.74	B3
0.73	B4
0.48	B5
0.59	B6
0.78	B7
0.68	B8

target: T4, FcγRIa extracellular domain with C-terminal His tag (human, UniProt P12314 16-292); assay: SPR; He/Con_1a divided by He/Con_2b (FcγRIa against FcγRIIb)
T4 construct: extracellular domain; also called FcgRI; CD64; not shown: His tag at the C terminus
T4 sequence (P12314 16-292): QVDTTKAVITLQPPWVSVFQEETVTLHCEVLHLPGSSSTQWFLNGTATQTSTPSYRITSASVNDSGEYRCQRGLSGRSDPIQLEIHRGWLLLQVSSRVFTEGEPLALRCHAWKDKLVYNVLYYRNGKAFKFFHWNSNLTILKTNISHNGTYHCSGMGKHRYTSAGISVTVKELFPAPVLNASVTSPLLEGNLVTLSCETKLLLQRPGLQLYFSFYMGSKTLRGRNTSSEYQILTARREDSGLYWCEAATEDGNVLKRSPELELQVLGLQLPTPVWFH

He_1a/2b (Ia/IIb) [ratio]	Binder
2.13	B9
1.5	B10
2.99	B11
1.32	B12
1.81	B13
1.27	B14
2.34	B15
1.59	B16
1.81	B17
1.37	B18
2.97	B19
2.21	B20
1.98	B21
1.66	B22
1.8	B23
1.5	B24
2.75	B25
2.57	B26
1.42	B27
1.66	B28
2.82	B29
4.27	B30
2.13	B31
9.3	B32
1.28	B33
1.78	B34
1.24	B35

target: T4, FcγRIa extracellular domain with …; assay: SPR (Biacore), antibody captured, FcγR analyte; relative to GpH7-A5/GpH7-B3/GpL16-k0 = 100

He/Con_1a	Binder
96.7 % of HeCon Ab	B9
82.3 % of HeCon Ab	B10
83.5 % of HeCon Ab	B11
72.6 % of HeCon Ab	B12
44.5 % of HeCon Ab	B13
93.3 % of HeCon Ab	B14
92.5 % of HeCon Ab	B15
92.2 % of HeCon Ab	B16
105 % of HeCon Ab	B17
96.6 % of HeCon Ab	B18
79.6 % of HeCon Ab	B19
86.5 % of HeCon Ab	B20
92.1 % of HeCon Ab	B21
95.2 % of HeCon Ab	B22
91.1 % of HeCon Ab	B23
77.3 % of HeCon Ab	B24
68 % of HeCon Ab	B25
89.8 % of HeCon Ab	B26
71 % of HeCon Ab	B27
92.9 % of HeCon Ab	B28
87.5 % of HeCon Ab	B29
77.4 % of HeCon Ab	B30
93.8 % of HeCon Ab	B31
63.1 % of HeCon Ab	B32
78.5 % of HeCon Ab	B33
88.1 % of HeCon Ab	B34
99.1 % of HeCon Ab	B35

target: T2, FcγRIIb extracellular domain with …; assay: as above

He/Con_2b	Binder
45.5 % of HeCon Ab	B9
54.8 % of HeCon Ab	B10
27.9 % of HeCon Ab	B11
55.2 % of HeCon Ab	B12
24.6 % of HeCon Ab	B13
73.2 % of HeCon Ab	B14
39.5 % of HeCon Ab	B15
57.8 % of HeCon Ab	B16
58.2 % of HeCon Ab	B17
70.4 % of HeCon Ab	B18
26.8 % of HeCon Ab	B19
39.1 % of HeCon Ab	B20
46.6 % of HeCon Ab	B21
57.4 % of HeCon Ab	B22
50.7 % of HeCon Ab	B23
51.4 % of HeCon Ab	B24
24.7 % of HeCon Ab	B25
34.9 % of HeCon Ab	B26
49.8 % of HeCon Ab	B27
56 % of HeCon Ab	B28
31 % of HeCon Ab	B29
18.1 % of HeCon Ab	B30
44.1 % of HeCon Ab	B31
6.8 % of HeCon Ab	B32
61.4 % of HeCon Ab	B33
49.4 % of HeCon Ab	B34
80 % of HeCon Ab	B35
